Test results reported in patent publication US20080274950A1 (BABRAHAM INSTITUTE, published 2008).

Legend:
[1] = target: T1, full length chicken N-cadherin with the N-terminus extended by two glycine residues (GG) expressed on K562 … (chicken, UniProt P10288 165-912); test: adhesion of K562 transfectants to N-cadherin Fc coated at 1 µg/ml
T1 construct: whole, on cells; also called cells expressing the GG N-terminal extension mutant; K562 GG
T1 sequence: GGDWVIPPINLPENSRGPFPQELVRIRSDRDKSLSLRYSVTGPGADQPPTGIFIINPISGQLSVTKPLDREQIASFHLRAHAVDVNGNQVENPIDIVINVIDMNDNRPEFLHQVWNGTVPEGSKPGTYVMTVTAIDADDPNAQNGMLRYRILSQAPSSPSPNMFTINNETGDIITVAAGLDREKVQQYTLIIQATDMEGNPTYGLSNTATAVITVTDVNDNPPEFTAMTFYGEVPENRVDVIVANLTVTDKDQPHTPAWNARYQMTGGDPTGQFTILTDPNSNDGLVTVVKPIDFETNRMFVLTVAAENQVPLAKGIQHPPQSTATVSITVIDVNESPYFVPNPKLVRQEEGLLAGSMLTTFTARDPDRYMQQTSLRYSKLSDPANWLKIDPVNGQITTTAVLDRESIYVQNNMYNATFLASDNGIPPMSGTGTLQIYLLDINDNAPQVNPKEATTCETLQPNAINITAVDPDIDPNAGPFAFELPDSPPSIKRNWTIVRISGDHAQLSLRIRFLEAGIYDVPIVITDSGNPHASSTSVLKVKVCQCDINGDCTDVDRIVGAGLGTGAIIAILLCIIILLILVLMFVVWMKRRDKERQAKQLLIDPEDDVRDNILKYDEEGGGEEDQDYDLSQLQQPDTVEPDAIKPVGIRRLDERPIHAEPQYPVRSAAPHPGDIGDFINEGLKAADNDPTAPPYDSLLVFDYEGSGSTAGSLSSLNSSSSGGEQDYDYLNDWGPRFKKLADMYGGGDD
Experimental: (§1) Adhesion tests were conducted substantially as described in Example 1. Briefly, K562 Cells or L cells transfected with wild type or mutant N-cadherin were allowed to settle for 45 minutes at 37° C. onto N-cadherin Fc fusion proteins coated at 1 μg/ml to a 96 well plate. Non-adherent cells were then washed off and residual adherent cells were quantitated by measuring acid phosphatase activity. Assays were conducted in quadruplicate and results are expressed as % cells adhering +/−SEM.

[2] = target: T2, full length chicken N-cadherin with the mutation E89A expressed on K562 cells (chicken, UniProt P10288 165-912, E89A); test: adhesion of K562 transfectants to coated N-cadherin Fc
T2 construct: whole, on cells; also called cells expressing the E89A mutation; K562 E89A
T2 sequence (looked up): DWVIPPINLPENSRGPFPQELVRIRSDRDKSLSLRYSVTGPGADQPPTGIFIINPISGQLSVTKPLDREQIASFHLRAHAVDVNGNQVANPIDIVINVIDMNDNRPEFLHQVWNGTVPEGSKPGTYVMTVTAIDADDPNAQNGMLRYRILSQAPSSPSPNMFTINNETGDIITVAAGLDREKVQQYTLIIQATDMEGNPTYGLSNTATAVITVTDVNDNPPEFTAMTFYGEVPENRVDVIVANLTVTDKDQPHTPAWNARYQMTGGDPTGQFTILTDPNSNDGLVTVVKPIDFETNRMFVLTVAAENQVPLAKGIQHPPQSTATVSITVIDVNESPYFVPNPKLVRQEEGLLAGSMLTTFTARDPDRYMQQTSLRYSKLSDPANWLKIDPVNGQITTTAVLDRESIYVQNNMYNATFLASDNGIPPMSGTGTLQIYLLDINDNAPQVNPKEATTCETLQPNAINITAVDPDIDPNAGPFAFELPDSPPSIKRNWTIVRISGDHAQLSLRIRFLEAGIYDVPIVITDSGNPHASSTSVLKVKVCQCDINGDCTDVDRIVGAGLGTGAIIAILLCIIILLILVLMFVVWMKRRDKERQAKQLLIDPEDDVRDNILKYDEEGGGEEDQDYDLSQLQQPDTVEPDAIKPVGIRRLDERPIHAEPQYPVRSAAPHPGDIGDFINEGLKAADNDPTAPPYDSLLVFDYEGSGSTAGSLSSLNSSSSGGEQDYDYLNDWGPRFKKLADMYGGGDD
Experimental: as §1

[3] = target: T2, full length chicken N-cadherin with the …; test: adhesion of K562 transfectants to N-cadherin Fc coated at 1 µg/ml; reversed by chelation of calcium
Experimental: as §1

[4] = target: T1, full length chicken N-cadherin with the …; test: adhesion of K562 transfectants to coated N-cadherin Fc
Experimental: as §1

[5] = target: T3, chicken N-cadherin Fc fusion protein with the pocket-blocking mutation A80I (chicken; human, UniProt P10288 165-728, A80I); test: bead aggregation assay, Protein A Dynabeads coated separately and mixed, 1.25 mM CaCl2
T3 construct: extracellular domain; also called A80I mutant; not shown: hinge region, CH2 and CH3 domains of human IgG1 heavy chain (vector pIgSig)
T3 sequence (looked up): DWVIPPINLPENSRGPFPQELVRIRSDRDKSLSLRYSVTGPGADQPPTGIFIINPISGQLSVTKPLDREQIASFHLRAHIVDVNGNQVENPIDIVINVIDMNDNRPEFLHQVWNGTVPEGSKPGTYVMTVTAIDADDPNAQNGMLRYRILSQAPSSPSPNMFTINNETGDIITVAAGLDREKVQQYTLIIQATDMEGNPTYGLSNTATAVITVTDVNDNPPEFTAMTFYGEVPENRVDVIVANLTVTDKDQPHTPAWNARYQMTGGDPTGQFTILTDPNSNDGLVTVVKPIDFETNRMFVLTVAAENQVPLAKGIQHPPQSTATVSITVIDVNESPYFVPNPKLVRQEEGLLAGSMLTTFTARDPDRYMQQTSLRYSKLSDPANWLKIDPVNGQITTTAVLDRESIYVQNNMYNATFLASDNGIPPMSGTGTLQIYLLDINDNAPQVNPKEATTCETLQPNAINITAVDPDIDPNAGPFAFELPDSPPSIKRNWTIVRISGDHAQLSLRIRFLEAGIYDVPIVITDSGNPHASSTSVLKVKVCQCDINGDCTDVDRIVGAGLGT
Experimental: (§2) Dynabeads (Dynal Biotech) coupled to Protein A were coated with N-cadherin Fc at 1 μg/ml in calcium and magnesium-free HBSS containing 0.1% Tween 20, 1% FCS and 4 mM EDTA. Eppendorf tubes containing beads and fusion protein were rotated slowly for 1 hour at room temperature to allow binding to take place. The beads were then washed in the above assay buffer lacking EDTA and then resuspended in the same buffer supplemented with 1.25 mM CaCl₂. Beads were allowed to aggregate in a volume of 100 μl for 2 hours at 37° C. by slow rotation, in an eppendorf tube, at approximately 20 rpm. Aggregation was then assessed by light microscopy.
In the experiments described so far in this example, disruption of the salt bridge prevented intramolecular docking of Trp 2 in one or both components of the dimer. In an alternative strategy to prevent intramolecular docking, we removed Trp2 by introducing the mutation W2G or blocked the hydrophobic acceptor pocket with an isoleucine side chain projecting into the cavity using the mutation A801. N-cadherin Fc fusion proteins with these mutations were then tested against our panel of K562 transfectants (FIG. 17a). In keeping with the explanation given in FIG. 5, the W2G mutant acted as a strand acceptor and therefore adhered strongly to the E89A mutant whereas the A80I mutant was a strand donor and adhered to the GG extension mutant. […]

[6] = target: the molecule itself; test: bead aggregation assay, 1.25 mM CaCl2
Experimental: as §2
In the experiments described so far in this example, disruption of the salt bridge prevented intramolecular docking of Trp 2 in one or both components of the dimer. In an alternative strategy to prevent intramolecular docking, we removed Trp2 by introducing the mutation W2G or blocked the hydrophobic acceptor pocket with an isoleucine side chain projecting into the cavity using the mutation A801. N-cadherin Fc fusion proteins with these mutations were then tested against our panel of K562 transfectants (FIG. 17a). In keeping with the explanation given in FIG. 5, the W2G mutant acted as a strand acceptor and therefore adhered strongly to the E89A mutant whereas the A80I mutant was a strand donor and adhered to the GG extension mutant. […] In contrast, beads coated with the W2G or A801 mutants and tested separately clustered in twos and threes, whereas beads coated with the negative control mutant, D134A, were entirely monodisperse. To test whether all five extracellular domains of N-cadherin (EC1-EC5) are necessary for the strong adhesive interaction between the complementary mutants, we compared the adhesive activity of the W2G mutant prepared as a full length (EC1-EC5) Fc fusion protein with that of the same mutant prepared as a truncated construct containing only cadherin domains EC1 and EC2.

[7] = target: the molecule itself; test: gel filtration on Superdex-200, 1 mM CaCl2
Description: Soluble N-cadherin-Fc fusion protein was obtained by transient transfection of Cos7 Cells as previously described (Corps et al., 2003). […] Soluble N-cadherin-Fc was routinely quantitated using an ELISA for Fc, standardised against purified cadherin-Fc fusion proteins.

B1: chicken N-cadherin Fc fusion protein with the mutation E89A (Fc fusion, UniProt P10288 165-728, looked up)
chain: DWVIPPINLPENSRGPFPQELVRIRSDRDKSLSLRYSVTGPGADQPPTGIFIINPISGQLSVTKPLDREQIASFHLRAHAVDVNGNQVANPIDIVINVIDMNDNRPEFLHQVWNGTVPEGSKPGTYVMTVTAIDADDPNAQNGMLRYRILSQAPSSPSPNMFTINNETGDIITVAAGLDREKVQQYTLIIQATDMEGNPTYGLSNTATAVITVTDVNDNPPEFTAMTFYGEVPENRVDVIVANLTVTDKDQPHTPAWNARYQMTGGDPTGQFTILTDPNSNDGLVTVVKPIDFETNRMFVLTVAAENQVPLAKGIQHPPQSTATVSITVIDVNESPYFVPNPKLVRQEEGLLAGSMLTTFTARDPDRYMQQTSLRYSKLSDPANWLKIDPVNGQITTTAVLDRESIYVQNNMYNATFLASDNGIPPMSGTGTLQIYLLDINDNAPQVNPKEATTCETLQPNAINITAVDPDIDPNAGPFAFELPDSPPSIKRNWTIVRISGDHAQLSLRIRFLEAGIYDVPIVITDSGNPHASSTSVLKVKVCQCDINGDCTDVDRIVGAGLGT
notes: extracellular domain; also called E89A mutant; E89A Fc fusion protein; not shown: hinge region, CH2 and CH3 domains of human IgG1 heavy chain (vector pIgSig)
[1]
  binding result: binds
[2]
  binding result: no binding (tested: Fc fusion protein coated at 1 µg/ml)

B2: chicken N-cadherin Fc fusion protein with the N-terminus extended by two glycine residues (GG) (Fc fusion)
chain: GGDWVIPPINLPENSRGPFPQELVRIRSDRDKSLSLRYSVTGPGADQPPTGIFIINPISGQLSVTKPLDREQIASFHLRAHAVDVNGNQVENPIDIVINVIDMNDNRPEFLHQVWNGTVPEGSKPGTYVMTVTAIDADDPNAQNGMLRYRILSQAPSSPSPNMFTINNETGDIITVAAGLDREKVQQYTLIIQATDMEGNPTYGLSNTATAVITVTDVNDNPPEFTAMTFYGEVPENRVDVIVANLTVTDKDQPHTPAWNARYQMTGGDPTGQFTILTDPNSNDGLVTVVKPIDFETNRMFVLTVAAENQVPLAKGIQHPPQSTATVSITVIDVNESPYFVPNPKLVRQEEGLLAGSMLTTFTARDPDRYMQQTSLRYSKLSDPANWLKIDPVNGQITTTAVLDRESIYVQNNMYNATFLASDNGIPPMSGTGTLQIYLLDINDNAPQVNPKEATTCETLQPNAINITAVDPDIDPNAGPFAFELPDSPPSIKRNWTIVRISGDHAQLSLRIRFLEAGIYDVPIVITDSGNPHASSTSVLKVKVCQCDINGDCTDVDRIVGAGLGTG
notes: extracellular domain; also called GG extension mutant; GG mutant; not shown: hinge region, CH2 and CH3 domains of human IgG1 heavy chain (vector pIgSig)
[3]
  binding result: binds
[4]
  binding result: no binding (tested: Fc fusion protein coated at 1 µg/ml)

B3: chicken N-cadherin-Fc fusion protein with the mutation W2G, dimeric (Fc fusion, UniProt P10288 165-728, looked up)
chain: DGVIPPINLPENSRGPFPQELVRIRSDRDKSLSLRYSVTGPGADQPPTGIFIINPISGQLSVTKPLDREQIASFHLRAHAVDVNGNQVENPIDIVINVIDMNDNRPEFLHQVWNGTVPEGSKPGTYVMTVTAIDADDPNAQNGMLRYRILSQAPSSPSPNMFTINNETGDIITVAAGLDREKVQQYTLIIQATDMEGNPTYGLSNTATAVITVTDVNDNPPEFTAMTFYGEVPENRVDVIVANLTVTDKDQPHTPAWNARYQMTGGDPTGQFTILTDPNSNDGLVTVVKPIDFETNRMFVLTVAAENQVPLAKGIQHPPQSTATVSITVIDVNESPYFVPNPKLVRQEEGLLAGSMLTTFTARDPDRYMQQTSLRYSKLSDPANWLKIDPVNGQITTTAVLDRESIYVQNNMYNATFLASDNGIPPMSGTGTLQIYLLDINDNAPQVNPKEATTCETLQPNAINITAVDPDIDPNAGPFAFELPDSPPSIKRNWTIVRISGDHAQLSLRIRFLEAGIYDVPIVITDSGNPHASSTSVLKVKVCQCDINGDCTDVDRIVGAGLGT
notes: extracellular domain; Full length (EC1-EC5) Fc construct; also called W2G mutant; W2G protein; not shown: hinge region, CH2 and CH3 domains of human IgG1 heavy chain (vector pIgSig)
[5]
  binding result: binds
[6]
  binding result: binds
[2]
  binding result: binds

B4: monomeric chicken N-cadherin-Fc with the double mutation W2G,D134A (Fc fusion, UniProt P10288 165-728, looked up)
chain: DGVIPPINLPENSRGPFPQELVRIRSDRDKSLSLRYSVTGPGADQPPTGIFIINPISGQLSVTKPLDREQIASFHLRAHAVDVNGNQVENPIDIVINVIDMNDNRPEFLHQVWNGTVPEGSKPGTYVMTVTAIAADDPNAQNGMLRYRILSQAPSSPSPNMFTINNETGDIITVAAGLDREKVQQYTLIIQATDMEGNPTYGLSNTATAVITVTDVNDNPPEFTAMTFYGEVPENRVDVIVANLTVTDKDQPHTPAWNARYQMTGGDPTGQFTILTDPNSNDGLVTVVKPIDFETNRMFVLTVAAENQVPLAKGIQHPPQSTATVSITVIDVNESPYFVPNPKLVRQEEGLLAGSMLTTFTARDPDRYMQQTSLRYSKLSDPANWLKIDPVNGQITTTAVLDRESIYVQNNMYNATFLASDNGIPPMSGTGTLQIYLLDINDNAPQVNPKEATTCETLQPNAINITAVDPDIDPNAGPFAFELPDSPPSIKRNWTIVRISGDHAQLSLRIRFLEAGIYDVPIVITDSGNPHASSTSVLKVKVCQCDINGDCTDVDRIVGAGLGT
notes: extracellular domain; also called the double mutant W2G,D134A; not shown: hinge region, CH2 and CH3 domains of human IgG1 heavy chain (vector pIgSig)
[7]
  binding result: no binding
